Patent publication US20160257757A1

Experiments:
[1] = target: full-length mouse GCGR (mouse) (UniProt Q61606); test: cell-based or functional assay
[2] = target: full-length rat GCGR transiently expressed on HEK293 reporter cells (rat) (UniProt P30082); test: cell-based or functional assay
Chain of full-length rat GCGR transiently expressed on HEK293 reporter cells (rat) (P30082 27-485 limits assumed): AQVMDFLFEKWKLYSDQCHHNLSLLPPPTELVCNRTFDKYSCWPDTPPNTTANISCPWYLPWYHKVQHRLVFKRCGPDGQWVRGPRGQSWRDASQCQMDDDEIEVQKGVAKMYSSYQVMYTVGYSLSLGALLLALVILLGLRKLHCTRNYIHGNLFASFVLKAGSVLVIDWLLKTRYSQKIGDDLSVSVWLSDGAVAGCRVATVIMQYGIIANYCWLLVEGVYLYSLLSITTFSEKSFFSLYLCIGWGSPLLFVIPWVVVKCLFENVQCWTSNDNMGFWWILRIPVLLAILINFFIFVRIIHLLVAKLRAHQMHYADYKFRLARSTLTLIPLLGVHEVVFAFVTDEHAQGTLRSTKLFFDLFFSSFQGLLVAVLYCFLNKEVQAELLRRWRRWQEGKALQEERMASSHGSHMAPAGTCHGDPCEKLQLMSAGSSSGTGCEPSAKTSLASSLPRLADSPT

Chain of full-length mouse GCGR (mouse) (Q61606 27-485 limits assumed): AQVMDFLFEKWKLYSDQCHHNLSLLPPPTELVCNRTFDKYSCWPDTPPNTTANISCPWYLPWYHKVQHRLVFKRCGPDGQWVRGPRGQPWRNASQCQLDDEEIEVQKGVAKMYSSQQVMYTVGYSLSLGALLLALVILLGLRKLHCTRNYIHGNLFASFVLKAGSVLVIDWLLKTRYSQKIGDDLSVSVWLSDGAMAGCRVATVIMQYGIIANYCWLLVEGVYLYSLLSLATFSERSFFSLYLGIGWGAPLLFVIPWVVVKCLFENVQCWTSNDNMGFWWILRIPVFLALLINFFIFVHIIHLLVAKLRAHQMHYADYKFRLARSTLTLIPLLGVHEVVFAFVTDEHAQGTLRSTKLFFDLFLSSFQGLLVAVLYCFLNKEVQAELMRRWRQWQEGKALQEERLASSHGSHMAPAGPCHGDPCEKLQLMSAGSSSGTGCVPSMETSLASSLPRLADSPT

- EC50 of luciferase (cAMP/CRE reporter) stimulation in HEK293/GCGR cells [1]: 0.083 nM
- EC50 of luciferase (cAMP/CRE reporter) stimulation in HEK293/GCGR cells [2]: 0.252 nM
Substance: glucagon (from UniProt P01275 53-81) (ligand)
